Here are results for six substances from PMC5035970.

Data set [1] concerns RSV Gag∆PR (Rous sarcoma virus, Prague C strain). The data set is described as follows: FA salt titration.
Data set [2] relates to H132R (HIV-1 / Rous sarcoma virus chimera). The data set can be described thus: FA salt titration.
Data set [3] relates to RSV CANC (Rous sarcoma virus, Prague C strain). The data set can be described thus: FA salt titration.
The test system of data set [4] is HIV-1 Gag∆p6 (HIV-1). The data set is described as follows: FA salt titration.
Data set [5] deals with R155H (Rous sarcoma virus (Prague C) / HIV-1 chimera). The data set can be described thus: FA salt titration.
Data set [6] relates to H132R (HIV-1 / Rous sarcoma virus chimera). The data set is described as follows: fluorescence anisotropy.
Data set [7] relates to HIV-1 Gag∆p6 (HIV-1). The data set is described as follows: fluorescence anisotropy. (Polarisation of emitted light reports the rotation of a fluorescent probe.)
The test system of data set [8] is RSV Gag∆PR (Rous sarcoma virus, Prague C strain). The data set is described as follows: fluorescence anisotropy.

For orientation: Kd means the concentration at which binding is half-saturated. As to RSV MΨ UGCG to GAGA, the Kd in data set [1] is 0.012 mM.
As to RSV MΨ WT, the Kd in data set [1] turned out to be 0.071 mM; in data set [2] it was 0.072 mM; in data set [3], 0.013 mM; in data set [4], 0.055 mM; in data set [5], 0.067 mM; in data set [6] it was 13 nM. This substance also gave a Kd in data set [7] of 14 nM.
On to RSV MΨ A197G, for which the Kd in data set [1] turned out to be 0.047 mM.
Regarding HIV-1 Ψ-WT, the Kd in data set [1] amounted to 32 mM; in data set [2] it was 19 mM; in data set [4], 0.036 mM; in data set [5] it was 0.031 mM; in data set [8] it was 14 nM.
For RSV MΨ GG to CC, the Kd in data set [1] was 0.49 mM.
For HIV-1 TARpolyA, the Kd in data set [1] was 40 mM; in data set [2] it was 290 mM; in data set [4], 560 mM; in data set [5], 2600 mM; in data set [8] it was 18 nM.
